Results reported in the supplement of paper PMC7877785.
± gives the uncertainty stated by the source.

Assay: self-splicing fitness, log relative to wild type (ln ratio); higher = more splicing; Tetrahymena group I intron in knt gene, E. coli kanamycin selection, DiMSum; sequences stand for … in CUCUCU…GGAGGGAAAAGUUAUCAGGCAUGCACCUGGUAGCUAGUCUUUAAACCAAUAGAUUGCAUCGGUUUAAAAGGCAAGACCGUCAAAUUGCGGGAAAGGGGUCAACAGCCGUUCAGUACCAAGUCUCAGGGGAAACUUUGAGAUGGCCUUGCAAAGGGUAUGGUAAUAAGCUGACGGACAUGGUCCUAACCACGCAGCCAAGUCCUAAGUCAACAGAUCUUCUGUUGAUAUGGAUGCAGUUCACAGACUAAAUGUCGGUCGGGGAAGAUGUAUUCUUCUCAUAAGAUAUAGUCGGACCUCUCCUUAAUGGGAGCUAGCGGAUGAAGUGAUGCAACACUGGAGCCGCUGGGAACUAAUUUGUAUGCGAAAGUAUAUUGAUUAGUUUUGGAGUACUCGUGGUCG
Procedure, shortened: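 A randomised library covering all eight P1ex-region intron nucleotides was built with the intron in the knt kanamycin-resistance gene on pET-22b(+) and held in E. coli BL21(DE3). Cells were grown overnight at 37°C or 30°C on LB agar, with or without 25 μg/mL kanamycin, plus 100 μg/mL carbenicillin, 50 μM IPTG and 0.2% rhamnose, and pooled colonies were amplicon-sequenced on an Illumina HiSeq 2500. DiMSum fitness is the error-weighted combination of wild-type-normalised replicate fold changes, kanamycin versus none.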

Row | Sequence | self-splicing fitness (ln) (30 °C) | self-splicing fitness (ln) (37 °C)
1 | AUUGAGCAAUAUUACGCUGU | -1.97 ± 0.25 | 
2 | CUGAAGCAAUAUUACGCACG | -0.222 ± 0.072 | -1.34 ± 0.08
3 | GGCGAGCAAUAUUACGCGAC | -2.61 ± 0.42 | 
4 | GUCUAGCAAUAUUACGGGAU | -4.48 ± 0.42 | -3.39 ± 0.42
5 | GUAAAGCAAUAUUACGGUGA | -0.896 ± 0.084 | -0.575 ± 0.1
6 | ACUUAGCAAUAUUACGGGAU | -2.08 ± 0.11 | -0.352 ± 0.098
7 | ACUGAGCAAUAUUACGGGAC |  | -1.43 ± 0.28
8 | GAACAGCAAUAUUACGGCUC | -0.329 ± 0.1 | -0.256 ± 0.1
9 | UAACAGCAAUAUUACGAUGC | -3.84 ± 0.33 | -2.35 ± 0.26
10 | AUGAAGCAAUAUUACGACGA | 0.221 ± 0.18 | 0.67 ± 0.15
11 | UACUAGCAAUAUUACGUCGG | -2.29 ± 0.15 | -2.18 ± 0.18
12 | CCUUAGCAAUAUUACGCCUA | -2.69 ± 0.48 | -1.4 ± 0.35
13 | GACAAGCAAUAUUACGGGAU | -2.65 ± 0.14 | -0.632 ± 0.12
14 | CGCAAGCAAUAUUACGACGA | -1.48 ± 0.11 | -0.997 ± 0.11
15 | GCAGAGCAAUAUUACGGAAU | -3.4 ± 0.36 | -1.51 ± 0.34
16 | GAUUAGCAAUAUUACGCUUA | -1.22 ± 0.13 | -0.752 ± 0.095
17 | GGCAAGCAAUAUUACGCUGG | -3.31 ± 0.23 | -2.68 ± 0.28
18 | GUCGAGCAAUAUUACGACCG | -1.69 ± 0.5 | 
19 | CCCUAGCAAUAUUACGUAAU | -3.5 ± 0.22 | -2.83 ± 0.25
20 | AAGGAGCAAUAUUACGCUCG | -0.454 ± 0.13 | -0.814 ± 0.17
21 | GGCUAGCAAUAUUACGCGAU | -1.74 ± 0.19 | -0.776 ± 0.2
22 | UUGCAGCAAUAUUACGUAGG | -0.924 ± 0.086 | -0.486 ± 0.11
23 | GGUAAGCAAUAUUACGGGCG | -0.129 ± 0.097 | -0.279 ± 0.13
24 | AGAUAGCAAUAUUACGACAG | -2.26 ± 0.15 | -0.465 ± 0.18

Row | Sequence | self-splicing fitness (ln) (30 °C) | self-splicing fitness (ln) (37 °C)
25 | CGAUAGCAAUAUUACGACUA | -1.8 ± 0.26 | -2.13 ± 0.23
26 | ACGCAGCAAUAUUACGCAGU | -3.29 ± 0.16 | -2.78 ± 0.21
27 | AUAGAGCAAUAUUACGCCCU | -0.756 ± 0.19 | -0.622 ± 0.37
28 | UGCAAGCAAUAUUACGAUGA | -0.161 ± 0.093 | 0.0415 ± 0.097
29 | CGACAGCAAUAUUACGAAAC | -3.49 ± 0.27 | -2.39 ± 0.25
30 | AAUCAGCAAUAUUACGUGGG | -2.12 ± 0.11 | -1.09 ± 0.12
31 | GUAUAGCAAUAUUACGUAAC | -1.95 ± 0.36 | -1.98 ± 0.32
32 | CGGUAGCAAUAUUACGUAAG | 0.00223 ± 0.095 | 0.329 ± 0.11
33 | GCAAAGCAAUAUUACGUAAA | -0.824 ± 0.062 | -0.5 ± 0.085
34 | GCACAGCAAUAUUACGAAGC | -2.52 ± 0.23 | -0.749 ± 0.15
35 | AUUGAGCAAUAUUACGACGA | -3.19 ± 0.4 | -0.517 ± 0.22
36 | ACCAAGCAAUAUUACGGGUG | -1.05 ± 0.043 | -0.597 ± 0.059
37 | ACAGAGCAAUAUUACGCCAA | -2.92 ± 0.22 | -2.78 ± 0.32
38 | GCAUAGCAAUAUUACGUACG | -1.42 ± 0.076 | -1.14 ± 0.09
39 | CGUCAGCAAUAUUACGAGAG | -2.91 ± 0.15 | -2.76 ± 0.25
40 | GAGCAGCAAUAUUACGACCA | -1.17 ± 0.14 | -1.02 ± 0.15
41 | UCCGAGCAAUAUUACGCAGG | -3.19 ± 0.17 | -1.88 ± 0.19
42 | AAGCAGCAAUAUUACGUGAU | -2.39 ± 0.081 | -1.49 ± 0.11
43 | GGUUAGCAAUAUUACGUCGC | -1.25 ± 0.24 | -0.982 ± 0.26
44 | AGUAAGCAAUAUUACGUAAG | -1.35 ± 0.13 | -1.96 ± 0.23
45 | AUUCAGCAAUAUUACGCACU | -0.181 ± 0.062 | 0.535 ± 0.086
46 | CGACAGCAAUAUUACGGGUU | -3.47 ± 0.12 | -2.01 ± 0.12
47 | CUGGAGCAAUAUUACGGGUG | -1.61 ± 0.079 | -0.251 ± 0.078
48 | CUCCAGCAAUAUUACGACAC | -2.74 ± 0.33 | -1.12 ± 0.34
